Measurements taken from patent US8431396B2, “Anti-angiogenic peptides” (The Cleveland Clinic Foundation, priority 2003, dated 2013).

How the values were obtained:
[1] = target: T1, PDGFR-β (Homo sapiens, UniProt P09619); assay: [125I]PDGF-BB binding to PAE-PDGFR-β cells; conditions: recombinant TIMP3 or overexpression
T1 construct: expressed in transfected cells; host or cells: porcine aortic endothelial (PAE) cells
Method: Radioligand binding is expressed as percent binding and is the mean±s.e.m. of triplicate samples. […] All values are expressed as mean±s.e.m. of triplicate samples. […] Binding is expressed as mean±s.e.m.
Data were analyzed by Scatchard plot analyses.

[2] = target: T2, VEGF (Homo sapiens, UniProt P15692); assay: Solid-phase direct binding of [125I]VEGF to wells coated with TIMPs
T2 construct: purchased Genentech (gift, not bought)
T2 sequence (P15692 27-191 isoform P15692-4): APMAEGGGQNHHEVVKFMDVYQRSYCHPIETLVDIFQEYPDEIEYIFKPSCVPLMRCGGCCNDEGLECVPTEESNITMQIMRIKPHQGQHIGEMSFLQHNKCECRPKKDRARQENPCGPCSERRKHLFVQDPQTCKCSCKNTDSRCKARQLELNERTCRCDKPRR

T1 sequence (P09619 33-1106, species assumed): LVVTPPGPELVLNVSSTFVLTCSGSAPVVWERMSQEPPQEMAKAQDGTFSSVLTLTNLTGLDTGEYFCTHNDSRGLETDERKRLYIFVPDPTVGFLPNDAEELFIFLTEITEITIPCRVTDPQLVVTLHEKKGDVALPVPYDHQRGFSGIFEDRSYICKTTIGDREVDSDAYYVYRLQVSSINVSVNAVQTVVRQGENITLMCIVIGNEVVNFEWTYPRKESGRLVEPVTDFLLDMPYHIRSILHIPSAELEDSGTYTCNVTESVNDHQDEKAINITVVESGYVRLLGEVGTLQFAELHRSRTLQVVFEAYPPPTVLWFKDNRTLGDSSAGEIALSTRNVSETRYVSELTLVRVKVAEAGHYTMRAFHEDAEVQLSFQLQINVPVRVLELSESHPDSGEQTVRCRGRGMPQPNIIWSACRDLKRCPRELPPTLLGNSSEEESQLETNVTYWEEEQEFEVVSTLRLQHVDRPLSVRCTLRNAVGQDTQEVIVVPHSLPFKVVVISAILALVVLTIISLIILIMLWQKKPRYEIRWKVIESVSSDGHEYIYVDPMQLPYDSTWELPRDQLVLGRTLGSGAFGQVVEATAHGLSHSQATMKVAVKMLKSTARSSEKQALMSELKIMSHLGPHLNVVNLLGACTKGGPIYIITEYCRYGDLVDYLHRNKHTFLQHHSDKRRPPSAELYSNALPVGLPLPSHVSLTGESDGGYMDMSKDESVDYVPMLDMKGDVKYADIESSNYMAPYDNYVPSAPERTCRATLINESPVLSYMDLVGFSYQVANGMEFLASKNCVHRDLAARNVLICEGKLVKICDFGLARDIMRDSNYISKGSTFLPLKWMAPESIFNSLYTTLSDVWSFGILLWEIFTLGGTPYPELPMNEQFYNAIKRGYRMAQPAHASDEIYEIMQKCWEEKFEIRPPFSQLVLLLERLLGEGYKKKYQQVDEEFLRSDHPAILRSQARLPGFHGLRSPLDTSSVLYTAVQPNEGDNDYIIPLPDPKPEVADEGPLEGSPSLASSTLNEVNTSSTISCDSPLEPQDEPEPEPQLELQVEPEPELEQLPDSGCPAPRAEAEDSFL

B1: TIMP3: tissue inhibitor of metalloproteinases-3; recombinant human form expressed in NSO myeloma cells, or wild-type expressed in transfected cells (protein, listed as Homo sapiens)
chain: MTPWLGLIVLLGSWSLGDWGAEACTCSPSHPQDAFCNSDIVIRAKVVGKKLVKEGPFGTLVYTIKQMKMYRGFTKMPHVQYIHTEASESLCGLKLEVNKYQYLLTGRVYDGKMYTGLCNFVERWDQLTLSQRKGLNYRYHLGCNCKIKSCYYLPCFVTSKNECLWTDMLSNFGYPGYQSKHYACIRQKGGYCSWYRGWAPPDKSIINATDP
- inhibition of PDGF-BB binding to PAE-PDGFR-β cells [1]: Neither recombinant TIMP3 nor overexpression of TIMP3 could inhibit binding of PDGF-BB
- direct binding of [125I]VEGF to coated TIMP [2]: did not detect direct binding
